Results as given in patent publication US20220098307A1 (WUHAN YZY BIOPHARMA, published 2022).
Residue numbers refer to the chain shown, from its start.

T1: human CEA (human, UniProt P06731 35-685)
T1 sequence: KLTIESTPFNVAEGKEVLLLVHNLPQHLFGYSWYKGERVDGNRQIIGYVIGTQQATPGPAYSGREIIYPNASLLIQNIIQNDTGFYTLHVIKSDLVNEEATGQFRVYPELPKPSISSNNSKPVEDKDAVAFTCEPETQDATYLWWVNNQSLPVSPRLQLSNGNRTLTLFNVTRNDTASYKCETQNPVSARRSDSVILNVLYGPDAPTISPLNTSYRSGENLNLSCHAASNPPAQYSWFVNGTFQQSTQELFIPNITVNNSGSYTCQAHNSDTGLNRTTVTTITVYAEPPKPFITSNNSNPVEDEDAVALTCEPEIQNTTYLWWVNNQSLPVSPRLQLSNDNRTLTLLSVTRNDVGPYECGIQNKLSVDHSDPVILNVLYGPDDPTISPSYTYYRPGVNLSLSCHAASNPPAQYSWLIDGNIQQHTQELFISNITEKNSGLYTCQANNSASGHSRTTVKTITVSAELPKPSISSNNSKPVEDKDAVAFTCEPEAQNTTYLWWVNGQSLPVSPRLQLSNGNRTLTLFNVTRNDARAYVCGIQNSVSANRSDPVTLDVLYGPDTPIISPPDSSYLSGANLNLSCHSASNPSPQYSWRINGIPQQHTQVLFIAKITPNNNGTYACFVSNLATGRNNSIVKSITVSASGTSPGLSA

T2: Human BCMA (human, UniProt Q02223 1-54)
T2 sequence: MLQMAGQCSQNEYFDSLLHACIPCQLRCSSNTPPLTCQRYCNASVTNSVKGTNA

B1: M2IC-WT (bispecific antibody, human IgG1, kappa)
chain: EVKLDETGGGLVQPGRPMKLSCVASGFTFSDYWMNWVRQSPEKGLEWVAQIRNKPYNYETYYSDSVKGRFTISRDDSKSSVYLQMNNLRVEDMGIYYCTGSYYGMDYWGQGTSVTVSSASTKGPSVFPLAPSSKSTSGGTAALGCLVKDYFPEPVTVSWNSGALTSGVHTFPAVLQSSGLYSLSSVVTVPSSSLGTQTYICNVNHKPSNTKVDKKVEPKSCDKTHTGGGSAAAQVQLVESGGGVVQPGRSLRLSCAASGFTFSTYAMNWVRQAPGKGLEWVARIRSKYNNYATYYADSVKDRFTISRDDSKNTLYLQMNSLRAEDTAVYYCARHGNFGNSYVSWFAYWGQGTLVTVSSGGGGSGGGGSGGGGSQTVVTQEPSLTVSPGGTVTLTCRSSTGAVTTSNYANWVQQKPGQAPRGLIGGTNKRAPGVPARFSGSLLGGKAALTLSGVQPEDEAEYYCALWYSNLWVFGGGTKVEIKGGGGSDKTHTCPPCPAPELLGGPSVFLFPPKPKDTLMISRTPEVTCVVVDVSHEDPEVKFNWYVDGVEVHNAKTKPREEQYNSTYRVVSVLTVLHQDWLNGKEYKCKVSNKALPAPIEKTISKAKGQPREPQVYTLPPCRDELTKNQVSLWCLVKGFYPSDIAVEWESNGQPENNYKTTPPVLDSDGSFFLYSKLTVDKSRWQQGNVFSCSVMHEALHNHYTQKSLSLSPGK
heavy: EVKLDETGGGLVQPGRPMKLSCVASGFTFSDYWMNWVRQSPEKGLEWVAQIRNKPYNYETYYSDSVKGRFTISRDDSKSSVYLQMNNLRVEDMGIYYCTGSYYGMDYWGQGTSVTVSSASTKGPSVFPLAPSSKSTSGGTAALGCLVKDYFPEPVTVSWNSGALTSGVHTFPAVLQSSGLYSLSSVVTVPSSSLGTQTYICNVNHKPSNTKVDKKVEPKSCDKTHTCPPCPAPELLGGPSVFLFPPKPKDTLMISRTPEVTCVVVDVSHEDPEVKFNWYVDGVEVHNAKTKPREEQYNSTYRVVSVLTVLHQDWLNGKEYKCKVSNKALPAPIEKTISKAKGQPREPQVCTLPPSRDELTKNQVSLSCAVKGFYPSDIAVEWESNGQPENNYKTTPPVLDSDGSFFLVSKLTVDKSRWQQGNVFSCSVMHEALHNRFTQKSLSLSPGK
light: DVVMTQTPLSLPVSLGDQASISCRSSQSLVHSNGNTYLRWYLQKPGQSPKVLIYKVSNRFSGVPDRFSGSGSGTDFTLKISRVEAEDLGVYFCSQSTHVPWTFGGGTKLEIKRTVAAPSVFIFPPSDEQLKSGTASVVCLLNNFYPREAKVQWKVDNALQSGNSQESVTEQDSKDSTYSLSSTLTLSKADYEKHKVYACEVTHQGLSSPVTKSFNRGEC
notes: structure 2 isotype control; CH2 WT
B2: M2IC-AAG (bispecific antibody, human IgG1, kappa, L234A L235A)
chain: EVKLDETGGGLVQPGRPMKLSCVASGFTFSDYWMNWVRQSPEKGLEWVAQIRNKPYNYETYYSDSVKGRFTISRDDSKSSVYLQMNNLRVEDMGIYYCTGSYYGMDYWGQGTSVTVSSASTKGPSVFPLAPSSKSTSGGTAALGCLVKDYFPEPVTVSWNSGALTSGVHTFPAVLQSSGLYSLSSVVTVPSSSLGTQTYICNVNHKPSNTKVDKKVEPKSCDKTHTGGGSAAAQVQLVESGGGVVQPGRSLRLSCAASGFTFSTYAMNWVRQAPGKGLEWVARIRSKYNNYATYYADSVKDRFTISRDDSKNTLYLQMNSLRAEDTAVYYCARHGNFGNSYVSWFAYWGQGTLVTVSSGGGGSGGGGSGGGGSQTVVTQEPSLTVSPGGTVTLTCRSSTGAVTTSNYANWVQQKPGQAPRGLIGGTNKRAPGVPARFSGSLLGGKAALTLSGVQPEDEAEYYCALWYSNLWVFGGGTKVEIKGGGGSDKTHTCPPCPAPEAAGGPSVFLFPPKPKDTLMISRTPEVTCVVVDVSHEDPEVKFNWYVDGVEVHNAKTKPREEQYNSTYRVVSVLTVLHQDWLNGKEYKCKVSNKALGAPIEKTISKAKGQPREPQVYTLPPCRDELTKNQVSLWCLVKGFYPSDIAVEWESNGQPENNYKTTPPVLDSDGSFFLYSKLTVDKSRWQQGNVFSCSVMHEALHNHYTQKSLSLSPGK
heavy: B1 heavy with L235A, L236A, P330G
light: B1 light
notes: structure 2 isotype control; CH2 AAG
B3: M2IC-FES (bispecific antibody, human IgG1, kappa)
chain: EVKLDETGGGLVQPGRPMKLSCVASGFTFSDYWMNWVRQSPEKGLEWVAQIRNKPYNYETYYSDSVKGRFTISRDDSKSSVYLQMNNLRVEDMGIYYCTGSYYGMDYWGQGTSVTVSSASTKGPSVFPLAPSSKSTSGGTAALGCLVKDYFPEPVTVSWNSGALTSGVHTFPAVLQSSGLYSLSSVVTVPSSSLGTQTYICNVNHKPSNTKVDKKVEPKSCDKTHTGGGSAAAQVQLVESGGGVVQPGRSLRLSCAASGFTFSTYAMNWVRQAPGKGLEWVARIRSKYNNYATYYADSVKDRFTISRDDSKNTLYLQMNSLRAEDTAVYYCARHGNFGNSYVSWFAYWGQGTLVTVSSGGGGSGGGGSGGGGSQTVVTQEPSLTVSPGGTVTLTCRSSTGAVTTSNYANWVQQKPGQAPRGLIGGTNKRAPGVPARFSGSLLGGKAALTLSGVQPEDEAEYYCALWYSNLWVFGGGTKVEIKGGGGSDKTHTCPPCPAPEFEGGPSVFLFPPKPKDTLMISRTPEVTCVVVDVSHEDPEVKFNWYVDGVEVHNAKTKPREEQYNSTYRVVSVLTVLHQDWLNGKEYKCKVSNKALPASIEKTISKAKGQPREPQVYTLPPCRDELTKNQVSLWCLVKGFYPSDIAVEWESNGQPENNYKTTPPVLDSDGSFFLYSKLTVDKSRWQQGNVFSCSVMHEALHNHYTQKSLSLSPGK
heavy: B1 heavy with L235F, L236E, P332S
light: B1 light
notes: structure 2 isotype control; CH2 FES
B4: CEA-M3-AG2 (bispecific antibody)
chain 1: QVQLVQSGSELKKPGASVKVSCKASGYTFTVFGMNWVRQAPGQGLEWMGWINTKTGEATYVEEFKGRFVFSLDTSVSTAYLQISSLKADDTAVYYCARWDFYDYVEAMDYWGQGTTVTVSSASTKGPSVFPLAPSSKSTSGGTAALGCLVKDYFPEPVTVSWNSGALTSGVHTFPAVLQSSGLYSLSSVVTVPSSSLGTQTYICNVNHKPSNTKVDKKVEPKSCGGGGSGGGGSQVQLVESGGGVVQPGRSLRLSCAASGFTFSTYAMNWVRQAPGKGLEWVARIRSKYNNYATYYADSVKDRFTISRDDSKNTLYLQMNSLRAEDTAVYYCARHGNFGNSYVSWFAYWGQGTLVTVSSASVAAPSVFIFPPSDEQLKSGTASVVCLLNNFYPREAKVQWKVDNALQSGNSQESVTEQDSKDSTYSLSSTLTLSKADYEKHKVYACEVTHQGLSSPVTKSFNRGECDKTHTCPPAPAPPVAGPSVFLFPPKPKDTLMISRTPEVTCVVVDVSHEDPEVQFNWYVDGVEVHNAKTKPREEQFNSTFRVVSVLTVVHQDWLNGKEYKCKVSNKGLPAPIEKTISKTKGQPREPQVYTLPPCRDELTKNQVSLWCLVKGFYPSDIAVEWESNGQPENNYKTTPPVLDSDGSFFLYSKLTVDKSRWQQGNVFSCSVMHEALHNHYTQKSLSLSPGK
chain 2: QTVVTQEPSLTVSPGGTVTLTCRSSTGAVTTSNYANWVQQKPGQAPRGLIGGTNKRAPGVPARFSGSLLGGKAALTLSGVQPEDEAEYYCALWYSNLWVFGGGTKVEIKSSASTKGPSVFPLAPSSKSTSGGTAALGCLVKDYFPEPVTVSWNSGALTSGVHTFPAVLQSSGLYSLSSVVTVPSSSLGTQTYICNVNHKPSNTKVDKKVEPKSC
heavy: QVQLVQSGSELKKPGASVKVSCKASGYTFTVFGMNWVRQAPGQGLEWMGWINTKTGEATYVEEFKGRFVFSLDTSVSTAYLQISSLKADDTAVYYCARWDFYDYVEAMDYWGQGTTVTVSSASTKGPSVFPLAPSSKSTSGGTAALGCLVKDYFPEPVTVSWNSGALTSGVHTFPAVLQSSGLYSLSSVVTVPSSSLGTQTYICNVNHKPSNTKVDKKVEPKSCDKTHTCPPAPAPPVAGPSVFLFPPKPKDTLMISRTPEVTCVVVDVSHEDPEVQFNWYVDGVEVHNAKTKPREEQFNSTFRVVSVLTVVHQDWLNGKEYKCKVSNKGLPAPIEKTISKTKGQPREPQVCTLPPSRDELTKNQVSLSCAVKGFYPSDIAVEWESNGQPENNYKTTPPVLDSDGSFFLVSKLTVDKSRWQQGNVFSCSVMHEALHNRFTQKSLSLSPGK
light: DIQMTQSPSSLSASVGDRVTITCKASQNVGTNVAWYQQKPGKAPKLLIYSASYRYSGVPSRFSGSGSGTDFTFTISSLQPEDIATYYCHQYYTYPLFTFGQGTKVEIKRTVAAPSVFIFPPSDEQLKSGTASVVCLLNNFYPREAKVQWKVDNALQSGNSQESVTEQDSKDSTYSLSSTLTLSKADYEKHKVYACEVTHQGLSSPVTKSFNRGEC
notes: structure 3; CEA x CD3; CH2 AG2CH2
B5: CEA-M3-G2D (bispecific antibody)
chain 1: B4 chain 1 with A475C, D515A
chain 2: B4 chain 2
heavy: B4 heavy with A233C, D273A
light: B4 light
notes: structure 3; CEA x CD3; CH2 G2DCH2
B6: CEA-M3-PG2 (bispecific antibody)
chain 1: B4 chain 1 with A475P
chain 2: B4 chain 2
heavy: B4 heavy with A233P
light: B4 light
notes: structure 3; CEA x CD3; CH2 PG2CH2
B7: CEA-M3-DG2D (bispecific antibody)
chain 1: B4 chain 1 with A475C, D510A, D515A
chain 2: B4 chain 2
heavy: B4 heavy with A233C, D268A, D273A
light: B4 light
notes: structure 3; CEA x CD3; CH2 DG2DCH2
B8: CEA-M3-GG2 (bispecific antibody)
chain 1: B4 chain 1 with A475G
chain 2: B4 chain 2
heavy: B4 heavy with A233G
light: B4 light
notes: structure 3; CEA x CD3; CH2 GG2CH2
B9: CEA-M3-DG2 (bispecific antibody)
chain 1: B4 chain 1 with A475C, D510A
chain 2: B4 chain 2
heavy: B4 heavy with A233C, D268A
light: B4 light
notes: structure 3; CEA x CD3; CH2 DG2CH2
B10: CEA-M3-SG2 (bispecific antibody)
chain 1: B4 chain 1 with A475S
chain 2: B4 chain 2
heavy: B4 heavy with A233S
light: B4 light
notes: structure 3 (fusion heavy chain, cross light chain, heavy, light; the light chain pairs with the heavy and with the fusion heavy chain); CEA x CD3; CH2 SG2CH2

Each binder was assayed against T3, Human CD3ε (human, UniProt P07766 23-126) (assay: flow cytometry, human T cells).
T3 construct: CD3 on T cells isolated from human whole blood
Outline: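 Mean fluorescence intensity by flow cytometry was plotted against antibody concentration; EC50 came from a one site–specific binding fit. Cells (2×10⁵/well) were incubated with 11-point, 3-fold antibody dilutions starting at 3000 nM for 2 h at 4° C, then with PE anti-human IgG Fc for 1 h.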

B1 was tested. Which EC50 did it give?
The EC50 was 499 nM.

B2 was tested. Which EC50 did it give?
The EC50 was 515 nM.

With B3 as the binder, how does the EC50 read?
The EC50 was 411 nM.

With B4 as the binder, how does the EC50 read?
The EC50 was 602 nM.

Which EC50 does the source give for B5 here?
The EC50 was 670 nM.

Which EC50 does the source give for B6 here?
Its EC50 is 654 nM.

Which EC50 does the source give for B7 here?
The EC50 was 611 nM.

Which EC50 does the source give for B8 here?
Its EC50 is 695 nM.

B9 was tested. Which EC50 did it give?
The EC50 was 609 nM.

Which EC50 does the source give for B10 here?
The EC50 was 631 nM.

These binders were tested against T4, Monkey CD3 (monkey) (assay: flow cytometry, monkey T cells).
T4 construct: whole, on cells; also called CD3 of monkey CD3 positive T cells

Which EC50 does the source give for B1 here?
Its EC50 is 540 nM.

Which EC50 does the source give for B2 here?
The EC50 was 528 nM.

How did the EC50 turn out when B3 was run?
Its EC50 is 506 nM.

What follows are binders tested against T1, human CEA (assay: flow cytometry, human tumor cells (CEA+)).
Description: (§1) 1) Cell preparation: T cells isolated from CD3-positive human whole blood were used for a CD3 end affinity detection of multifunctional antibody molecule; positive tumor cells of corresponding antigen were used for detecting affinity of tumor antigen; for example, CD38-positive MM. 1S cells (purchased from the Cell Resource Center of Shanghai Institutes for Biological Sciences, Chinese Academy of Sciences) or RPMI 8226 cells (purchased from the Cell Resource Center of Shanghai Institutes for Biological Sciences, Chinese Academy of Sciences) were used for CD38 antigen detection, and PD-L1 positive H358 cells (purchased from the Cell Resource Center of Shanghai Institutes for Biological Sciences, Chinese Academy of Sciences) were used for PD-L1 antigen detection, and so on. The cells were resuspended with 1% FBS-PBS, adjusted to a density of 4×10⁶/ml, and 50 μl of cells were taken from each well, and then plated at 2×10⁵ per well. Cell plating was operated on ice
(§2) 2) Addition of the antibody: according to the experimental design, the antibody was diluted gradually, and dilution of antibody was operated on ice. For example, the initial concentration of antibody for dilution was 3000 nM, and the antibody was diluted by 3 times with 11 concentration gradients. The diluted antibody was added to a cell well at 50 μl per well, mixed well, and shaked and incubated at 4° C. 1100 rpm/min for 2 h; after washing, the cells were resuspend in 1% FBS-PBS, and a diluted secondary antibody PE anti-human IgG FC (Biolegend, 409304) was added with a final concentration of 8 ug/ml and a volume of 50 μl/well. At the same time, a well only added with cells and secondary antibody was set as a control, the components were mixed well, and incubated under shaking at 1100 rpm/min at 4° C. for 1 h;
(§3) 5) Data analysis: the data was analyzed by a flow analysis software FlowJo 7.6 thereby obtaining an average fluorescence intensity of the specific antibody concentration, plotted by a Graphpad Prism 5 with the antibody concentration (nM) as an abscissa and the average fluorescence intensity as an ordinate; the EC50 value was calculated by the method of One site—Specific binding, and the EC50 value indicated the cell affinity of the antibody to the corresponding target antigen.

For B4, which EC50 is on record?
The EC50 was 38.1 nM.

For B5, which EC50 is on record?
Its EC50 is 38.4 nM.

For B6, which EC50 is on record?
The EC50 was 41.9 nM.

How did the EC50 turn out when B7 was run?
Its EC50 is 34.2 nM.

How did the EC50 turn out when B8 was run?
Its EC50 is 39.1 nM.

For B9, which EC50 is on record?
Its EC50 is 31.9 nM.

For B10, which EC50 is on record?
Its EC50 is 30.5 nM.

Each binder was assayed against T2, Human BCMA (assay: flow cytometry, human tumor cells (table of the BCMA series)).
Description: as §1, §2, §3

Does B1 bind?
Result: no binding

Does B2 bind?
Result: no binding

Does B3 bind?
Result: no binding
